As a reminder, the Kd is the constant that tells how readily two partners part at equilibrium.

Experiment [1] addresses T1, phosphorylated rhodopsin (Meta II) (Bos taurus, UniProt P02699). The experiment is described as follows: Extra Meta II assay: stabilization of Meta II by peptide, UV-visible absorption. The format is binding, bovine. The settings on record: 10 μM ROS-P, 100 mM HEPES pH 8.0, 0 °C, 380-nm absorbance.
The target of experiment [2] is phosphorylated opsin (OpsP) (Bos taurus, UniProt P02699). The format is binding, bovine. The following applies: 1 μM arrestin A366NBD + 2 μM OpsP, 50 mM HEPES pH 7.0, 22 °C.
Sequence of phosphorylated opsin (OpsP) (P02699 whole entry): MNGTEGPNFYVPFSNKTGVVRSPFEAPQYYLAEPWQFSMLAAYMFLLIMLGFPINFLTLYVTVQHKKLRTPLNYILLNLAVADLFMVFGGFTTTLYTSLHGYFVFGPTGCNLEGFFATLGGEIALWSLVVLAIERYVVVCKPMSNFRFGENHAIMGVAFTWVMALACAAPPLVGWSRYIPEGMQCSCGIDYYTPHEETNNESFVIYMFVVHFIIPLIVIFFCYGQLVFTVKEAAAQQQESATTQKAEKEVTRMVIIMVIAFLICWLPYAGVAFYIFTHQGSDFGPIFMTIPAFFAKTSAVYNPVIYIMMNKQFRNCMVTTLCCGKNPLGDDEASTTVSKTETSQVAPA
For experiment [3], the target named is T1, phosphorylated rhodopsin (Meta II). The settings on record: 380-nm-absorbing Meta II; cited from earlier work.
Experiment [4] has as its target phosphorylated opsin (OpsP) in membranes (bovine, UniProt P02699 1-348, phosphorylated by native rhodopsin kinase (sites not given)). The experiment is described as follows: co-sedimentation.

Residues, ends and D or L forms follow the SMILES beside them.

T1 sequence (P02699 whole entry): as above
Sequence of phosphorylated opsin (OpsP) in membranes (P02699 whole entry): as above

Turning to `CC[C@H](C)[C@H](NC(=O)[C@H](CC(=O)O)NC(=O)[C@H](CCC(=O)O)NC(=O)[C@H](CCC(N)=O)NC(=O)CNC(=O)[C@@H](N)Cc1ccc(O)cc1)C(=O)N[C@@H](CC(=O)O)C(=O)N[C@H](C(=O)N[C@@H](CCSC)C(=O)NCC(=O)N[C@@H](CC(C)C)C(=O)O)C(C)C` [ArrFL-1] (H-YGQEDIDVMGL-OH), in experiment [1], the “Stabilization of Meta II / Extra Meta II formation (in words)” value is given as “stabilized the 380-nm-absorbing Meta II species over Meta I”.
Turning to QRMHLRQYELL [GsαCT], the “Competition for arrestin binding to phosphorylated opsin (in words)” value in experiment [2] is on record as “showed no competition for arrestin binding to phosphorylated opsin”. In experiment [1], the “Stabilization of Meta II / Extra Meta II formation (in words)” value is recorded as “did not stabilize Meta II”.

B1: arrestin: full-length rod photoreceptor arrestin (protein)
chain: MKANKPAPNHVIFKKISRDKSVTIYLGKRDYIDHVERVEPVDGVVLVDPELVKGKRVYVSLTAAFRYGQEDIDVMGLSFRRDLYFSQVQVFPPVGASGATTRLQESLIKKLGANTYPFLLTFPDYLPSSVMLQPAPQDVGKSAGVDFEIKAFATHSTDVEEDKIPKKSSVRLLIRKVQHAPRDMGPQPRAEASFQFFMSDKPLRLAVSLSKEIYYHGEPIPVTVAVTNSTEKTVKKIKVLVEQVTNVVLYSSDYYIKTVAAEEAQEKVPPNSSLTKTLTLVPLLANNRERRGIALDGKIKHEDTNLASSTIIKEGIDKTVMGILVSYQIKVKLTVSGLLGELTSSEVATEVPFRLMHPQPEDPDTCKESFQDENFVFEEFARQNLKDAGEYKEEKTDQEAAMDE
modifications: NBD label on the single cysteine A366C
As to B1, in experiment [3], the “Stabilization of Meta II species over Meta I” value is “stabilized the 380-nm-absorbing Meta II species over Meta I”.
In experiment [4], YGQEDIDVMGL [ArrFL-1, peptide analogue of the finger loop of rod photoreceptor arrestin] came in with a Kd of 1700 µM.
Still for that read-out and setting: then YGREDLDVLGL [ArrFL-2/3, finger loop peptide of beta-arrestin-1 and beta-arrestin-2], with 2400 µM; and IKENLKDCGLF [GtαCT, wild-type Gtα C-terminal peptide], with 880 µM.
Same read-out and setting: as for ILENLKDCGLF [GtαCT-HA, high-affinity version of the Gtα C-terminal peptide], the figure is 320 µM.

The record behind these values is paper PMC4199108 (Nature Communications, 2014).
